Test results reported in article PMC7611231, “Allosteric Activation of the ATPase Activity of the Escherichia coli RhlB RNA Helicase*” (The Journal of biological chemistry, 2007).

B1: N-terminal His6-tagged RNase E residues 696-762 (domain or fragment, E. coli, UniProt P21513 696-762, looked up)
chain: ALNVEEQSVQETEQEERVRPVQPRRKQRQLNQKVRYEQSVAEEAVVAPVVEETVAAEPIVQEAPAPR
notes: Cloned BamHI/SalI in the first cloning site of pRSF-Duet-1; also called RNase E peptide; source: E. coli, pRSF-Duet-1, purified (Ni-NTA, S200); also co-expressed with RhlB from pRneRhlB in E. coli BL21(DE3), co-purified (Ni-NTA, SP, S200); not shown: His6, N-terminal, kept
B2: Escherichia coli DEAD box RNA helicase RhlB, wild type (enzyme, E. coli, UniProt P0A8J8 1-421, looked up)
chain: MSKTHLTEQKFSDFALHPKVVEALEKKGFHNCTPIQALALPLTLAGRDVAGQAQTGTGKTMAFLTSTFHYLLSHPAIADRKVNQPRALIMAPTRELAVQIHADAEPLAEATGLKLGLAYGGDGYDKQLKVLESGVDILIGTTGRLIDYAKQNHINLGAIQVVVLDEADRMYDLGFIKDIRWLFRRMPPANQRLNMLFSATLSYRVRELAFEQMNNAEYIEVEPEQKTGHRIKEELFYPSNEEKMRLLQTLIEEEWPDRAIIFANTKHRCEEIWGHLAADGHRVGLLTGDVAQKKRLRILDEFTRGDLDILVATDVAARGLHIPAVTHVFNYDLPDDCEDYVHRIGRTGRAGASGHSISLACEEYALNLPAIETYIGHSIPVSKYNPDALMTDLPKPLRLTRPRTGNGPRRTGAPRNRRRSG
notes: The same untagged protein from two vectors (pET11a alone; second cloning site of pRSF-Duet-1, NdeI/XhoI, in pRneRhlB); also called WT RhlB; Helicase B; source: E. coli BL21(DE3), pET11a, purified (published procedure plus S200 size exclusion)

Columns and labels:
[1] = molecular target: RNase E 628-843 (Escherichia coli) (UniProt P21513); conditions: cited from earlier work
Sequence of RNase E 628-843 (Escherichia coli) (P21513 628-843): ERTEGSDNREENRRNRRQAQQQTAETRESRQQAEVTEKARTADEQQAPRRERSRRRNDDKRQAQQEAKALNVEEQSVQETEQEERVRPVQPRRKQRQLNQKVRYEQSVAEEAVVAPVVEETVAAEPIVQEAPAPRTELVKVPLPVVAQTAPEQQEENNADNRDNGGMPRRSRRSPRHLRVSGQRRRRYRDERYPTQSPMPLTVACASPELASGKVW

[2] = molecular target: B2; test: ITC; 300 uM RNase E-(696-762) in the syringe titrated into 20 uM WT RhlB or variant in the cell; 25 C; 50 mM potassium phosphate pH 7.4, 100 mM NaCl, 1 mM dithiothreitol (methods; the table's caption says 100 mM KPi, 50 mM NaCl); 1:1 model; Ka are lower limits; conditions: both partners purified
[3] = molecular target: B2; test: native MS; nanoflow ESI under non-dissociating conditions; co-expressed complex after size exclusion chromatography, 5-20 uM, 250 mM ammonium acetate; MS/MS of the +15 ion; conditions: both partners purified
RhlB S381A (E. coli) [4] = molecular target: RhlB S381A (E. coli)
RhlB H320D (E. coli) = test: ITC; 300 uM RNase E-(696-762) in the syringe titrated into 20 uM WT RhlB or variant in the cell; 25 C; 50 mM potassium phosphate pH 7.4, 100 mM NaCl, 1 mM dithiothreitol (methods; the table's caption says 100 mM KPi, 50 mM NaCl); 1:1 model; Ka are lower limits
RhlB S381A (E. coli) [5] = test: as above
[6] = molecular target: B1; test: SEC; co-expressed in E. coli from a di-cistronic vector; His6-RNase E-(696-762) held on Ni-NTA, then SP column and S200 size exclusion; fractions on SDS-PAGE; conditions: partners not purified

For RhlB (from UniProt P0A8J8), the Kd [1] is given as 50 nM.

In the case of B1, the Ka [2] is reported as ≥ 1.1e+08 M⁻¹, the dH [2] is reported as -27.6 kcal/mol and the “stoichiometry N” value [2] is reported as 0.92. For the same molecule, the “stoichiometry N” value [3] was 1, the ATPase activity of S381A RhlB with RNase E-(696-762) and bulk S. cerevisiae RNA (S381A RhlB alone: ≤0.5) (mol Pi/min/mol protein) (RhlB S381A (E. coli) [4]) was 9.4 and the Ka (RhlB H320D (E. coli)) was > 7e+07 M⁻¹. The dH (RhlB H320D (E. coli)) was -29 kcal/mol, the stoichiometry N (RhlB H320D (E. coli)) was 0.83 and the Ka (RhlB S381A (E. coli) [5]) was > 8e+07 M⁻¹. The dH (RhlB S381A (E. coli) [5]) was -23.3 kcal/mol and the stoichiometry N (RhlB S381A (E. coli) [5]) was 1.2.

In the case of B2, the “stoichiometry N” value [6] is reported as ~1.
